Laboratory results published in US20240034800A1 (MEDYTOX, published 2024).
Substitutions are numbered along the chain they refer to. Names may count otherwise. “And” between values parts separate entries of the source, which are not always exact repeats. Equal entries are not always repeated.

T1: human HVEM-Fc protein (human, UniProt Q92956 39-202, limits assumed)
T1 construct: not shown: Fc
T1 sequence (looked up): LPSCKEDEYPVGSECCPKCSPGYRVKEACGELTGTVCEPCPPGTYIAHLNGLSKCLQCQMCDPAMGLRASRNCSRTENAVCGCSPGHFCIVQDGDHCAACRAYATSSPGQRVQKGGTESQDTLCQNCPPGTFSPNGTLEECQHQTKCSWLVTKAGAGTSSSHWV

T2: Mouse HVEM-Fc (mouse, UniProt Q80WM9)
T2 construct: part fused to Fc; also called mouse HVEM-mFc; mHVEM
T2 sequence (fusion chain, looked up): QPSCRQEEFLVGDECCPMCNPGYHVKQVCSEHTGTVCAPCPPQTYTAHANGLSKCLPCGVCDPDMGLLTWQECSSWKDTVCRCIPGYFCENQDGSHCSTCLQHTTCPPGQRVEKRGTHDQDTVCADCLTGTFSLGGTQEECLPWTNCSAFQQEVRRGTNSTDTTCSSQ

T3: Monkey HVEM-Fc (Macaca fascicularis, UniProt A0A2K5W0R1)
T3 construct: part fused to Fc; also called cynomolgus monkey HVEM-hFc
T3 sequence (fusion chain): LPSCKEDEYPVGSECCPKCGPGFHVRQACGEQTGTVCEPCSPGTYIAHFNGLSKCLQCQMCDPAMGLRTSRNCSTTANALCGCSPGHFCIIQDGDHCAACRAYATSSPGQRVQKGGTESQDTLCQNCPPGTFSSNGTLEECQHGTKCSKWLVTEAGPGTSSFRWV

B1: HVEM001 (antibody, human IgG4 S228P, kappa, V domains shown)
VH: EVQLLESGGGLVQPGGSLRLSCAASGFTFSNYAMHWVRQAPGKGLEWVSNINPSGGSTTYAQEFEDRFTISRDNSKNTLYLQMNSLRAEDTAVYYCATRSRQDSWGYFDIWGQGTLVTVSS
VL: EIVLTQSPGTLSLSPGERATLSCRASRSISNYLAWYQQKPGQAPRLLIYGASTRATGIPDRFSGSGSGTDFTLTISRLEPEDFAVYYCQQYGSSPPLTFGQGTKVEIKR
B2: HVEM021 (antibody, human IgG4 S228P, kappa, V domains shown)
VH: EVQLLESGGGLVQPGGSLRLSCAASGFTFSTFAMHWVRQAPGKGLEWVSSIYPSGNTHYKPSLKSRFTISRDNSKNTLYLQMNSLRAEDTAVYYCARRHPGGGWIFDYWGQGTLVTVSS
VL: B1 VL with I29V, S30G, N31K, L97V
notes: Full-size human IgG4 (S228P) kappa antibody made in ExpiCHO-S; human IL-2 signal peptide is cleaved and left out; also called HVEM021 antibody
B3: HVEM011 (antibody, human IgG4 S228P, kappa, V domains shown)
VH: EVQLLESGGGLVQPGGSLRLSCAASEFTFSSYAMHWVRQAPGKGLEWVSSITSASSYIDYADSVKGRFTISRDNSKNTLYLQMNSLRAEDTAVYYCARGTRGLFDHWGQGTLVTVSS
VL: B1 VL with I29V, S30G, N31K, G50L, A51G, T53N, T56S, L97I
notes: Full-size human IgG4 (S228P) kappa antibody made in ExpiCHO-S; human IL-2 signal peptide is cleaved and left out; also called HVEM011 antibody
B4: HVEM017 (antibody, human IgG4 S228P, kappa, V domains shown)
VH: EVQLLESGGGLVQPGGSLRLSCAASGFTFSTNYMSWVRQAPGKGLEWVSLISYSGSNKYYADSVKGRFTISHDNSKNTLYLQMNSLRAEDTAVYYCARGRGNTISGTFDLWGQGTLVTVSS
VL: B1 VL with I29V, S30G, N31K, G50S, R54L, A55S, T56S, L97I
notes: also called HVEM0017
B5: HVEM018 (antibody, human IgG4 S228P, kappa, V domains shown)
VH: EVQLLESGGGLVQPGGSLRLSCAASGFTFSSYSMNWVRQAPGKGLEWVSAISGSGGGTYSADSVKGRFTISRDNSKNTLYLQMNSLRAEDTAVYYCARGKAYGYFDYWGQGTLVTVSS
VL: B1 VL with I29V, S30G, N31K, G50A, R54L, A55Q, T56S, L97V, T98I
B6: HVEM039 (antibody, human IgG4 S228P, kappa, V domains shown)
VH: EVQLLESGGGLVQPGGSLRLSCAASGFTFSSYGMNWVRQAPGKGLEWVSIINPSGDTTTYAQKFQGRFTISRDNSKNTLYLQMNSLRAEDTAVYYCARGRGAFDYWGQGTLVTVSS
VL: B1 VL with I29V, S30G, N31K, S52T, T53S, L97V
B7: HVEM041 (antibody, human IgG4 S228P, kappa, V domains shown)
VH: EVQLLESGGGLVQPGGSLRLSCAASGFTFSSYAMSWVRQAPGKGLEWVSEISQSGSSNYNPSLKSRFTISRDNSKNTLYLQMNSLRAEDTAVYYCATGRWRFDYWGQGTLVTVSS
VL: B1 VL with I29V, S30G, N31K, L97V
B8: HVEM032 (antibody, human IgG4 S228P, kappa, V domains shown)
VH: EVQLLESGGGLVQPGGSLRLSCAASGFTFSNYAIHWVRQAPGKGLEWVSTISSPGSTINYADSVKGRFTISRDNSKNTLYLQMNSLRAEDTAVYYCASGYLYPAMDVWGQGTLVTVSS
VL: B1 VL with I29V, S30G, N31K, A34S, T53K, R54L, A55Q, T56S, S94W, L97F
B9: HVEM030 (antibody, human IgG4 S228P, kappa, V domains shown)
VH: EVQLLESGGGLVQPGGSLRLSCAASGFTFSGYYWTWVRQAPGKGLEWVSTISASGDSTYYADSVKGRFTISRDNSKNTLYLQMNSLRAEDTAVYYCAHDRTFGYFDYWGQGTLVTVSS
VL: B1 VL with I29V, S30G, N31K, G50A, T53S, R54L, A55Q, T56S, L97I
B10: HVEM040 (antibody, human IgG4 S228P, kappa, V domains shown)
VH: EVQLLESGGGLVQPGGSLRLSCAASGFTFSNYGMSWVRQAPGKGLEWVSSIYYSGDTYYNPSLESRFTISRDNSKNTLYLQMNSLRAEDTAVYYCASGSNAFDIWGQGTLVTVSS
VL: B1 VL with I29V, S30G, N31K, T53S, A55T, L97V
B11: HVEM004 (antibody, human IgG4 S228P, kappa, V domains shown)
VH: EVQLLESGGGLVQPGGSLRLSCAASGFTFSSYAMSWVRQAPGKGLEWVSSISGSGGKTYYADSVRGRFTISRDNSKNTLYLQMNSLRAEDTAVYYCAKGVGYTTSGRFDYWGQGTLVTVSS
VL: B1 VL with N31S, A51V, S94W, L97F

target: T1, human HVEM-Fc protein; experiment: Octet BLI

Kd	kon	Binder
0.0263 nM	287000 M⁻¹ s⁻¹	B1
0.0344 nM	471000 M⁻¹ s⁻¹	B2
0.0225 nM and 0.0146 nM	425000 M⁻¹ s⁻¹ and 598000 M⁻¹ s⁻¹	B3

target: T1, human HVEM-Fc protein; experiment: Octet BLI (column kdis)

koff	Binder
7.55e-06 s⁻¹	B1
1.62e-06 s⁻¹	B2
9.53e-06 s⁻¹ and 8.75e-06 s⁻¹	B3

target: T1, human HVEM-Fc protein; experiment: ELISA, coated human HVEM-hFc, anti-human IgG4-HRP
Experimental: (§1) The binding ability of the full-size human antibody to HVEM was analyzed using an ELISA testing method. 0.2 μg/ml of each of human HVEM-hFc, cynomolgus monkey HVEM-hFc, and mouse HVEM-mFc proteins was coated on a 96-half-well plate for immunosorbent assay. To inhibit non-specific binding, reaction was carried out in phosphate buffered saline (PBS) containing 3% bovine serum albumin (BSA) for 1 hour, followed by treatment with serially diluted antibodies for 1 hour. To measure the amounts of the bound antibodies, horse radish peroxidase (HRP)-conjugated anti-human IgG4 antibody was used, and for the activity of HRP, a color reaction was induced using a 3,3′,5,5′-tetramethylbenzidine (TMB) substrate solution, and the reaction was terminated with 1N sulfuric acid. […] In the middle of each step, washing was performed three times using PBS (PBST) containing 0.1% Triton X-100. The binding ability of the antibodies was derived using SigmaPlot.

binding affinity (ELISA fit; table in pM)	Binder
32.8 pM	B1
32.5 pM	B2
25.9 pM	B3

target: T2, Mouse HVEM-Fc; experiment: ELISA, coated mouse HVEM-mFc, anti-human IgG4-HRP
Experimental: as §1

binding affinity (ELISA fit; table in pM)	Binder
228 pM	B1
55.6 pM	B2
203 pM	B3

target: T3, Monkey HVEM-Fc; experiment: ELISA, coated cynomolgus monkey HVEM-hFc, anti-human IgG4-HRP
Experimental: as §1

binding affinity (ELISA fit; table in pM)	Binder
341 pM	B1
61.8 pM	B2
65.9 pM	B3

target: T1, human HVEM-Fc protein; experiment: ELISA, coated human HVEM-hFc 0.2 ug/ml, anti-human IgG4-HRP, SigmaPlot fit
Experimental: as §1

binding affinity (ELISA fit)	Binder
22 pM	B1
21.5 pM	B4
25.9 pM	B5
19.5 pM	B6
20.1 pM	B7
16.9 pM	B8
23.4 pM	B3
16.1 pM	B9
20 pM	B10

target: T2, Mouse HVEM-Fc; experiment: ELISA, coated mouse HVEM-mFc 0.2 ug/ml, anti-human IgG4-HRP, SigmaPlot fit
Experimental: as §1

binding affinity (ELISA fit)	Binder
151 pM	B1
112 pM	B4
158 pM	B5
334 pM	B6
141 pM	B7
114 pM	B8
219 pM	B3
16.6 pM	B9
126 pM	B10

target: T1, human HVEM-Fc protein; experiment: flow cytometry competition: human HVEM-Fc 1 ug/ml on BTLA-expressing Jurkat cells, antibody 10 or 100 nM; blocked ligand BTLA
Experimental: For flow cytometry, the stained cell lines were fixed on ice for 20 minutes using PBS containing 2% formaldehyde and stored in a refrigerator until flow cytometry.

binding result	Binder
binds	B11
